# Experiments:
# [1] = molecular target: ForJ (Streptomyces formicae); test: non-reducing SDS-PAGE; purified ForJ exposed to increasing DTT; no beta-mercaptoethanol and no boiling before loading; monomers and dimers
# [2] = molecular target: ForJ (Streptomyces formicae); test: mass photometry; ReFeyn mass photometry of purified ForJ reduced with TCEP; monomers to dimer
# [3] = molecular target: ForJ (Streptomyces formicae); test: mass photometry; ReFeyn mass photometry of purified ForJ without reducing agent (oxidized); 38 kDa and 76 kDa states both present; dimers to dimer of dimers
# [4] = molecular target: ForJ (Streptomyces formicae); test: non-reducing SDS-PAGE; purified ForJ exposed to increasing H2O2; no beta-mercaptoethanol and no boiling before loading; dimers to dimer of dimers
substance,measurement,setting,value
ForJ (natural protein),stoichiometry N,[1],2
same,stoichiometry N,[2],2
same,stoichiometry N,[3],4
same,stoichiometry N,[4],4

# From article PMC12421854
